Here are results for one molecule from article PMC3766443 (Nature structural & molecular biology, 2013).

For this assay, the target named is Arp2 subunit of Bos taurus Arp2/3 complex (Bos taurus, UniProt A7MB62 1-394). As to the kind of experiment: crystal structure.

B1: Mus musculus GMFγ (glial maturation factor gamma), GST tag removed (natural protein)
chain: MSDSLVVCEVDPELKETLRKFRFRKETNNAAIIMKVDKDRQMVVLEDELQNISPEELKLELPERQPRFVVYSYKYVHDDGRVSYPLCFIFSSPVGCKPEQQMMYAGSKNRLVQTAELTKVFEIRTTDDLTETWLKEKLAFFR
For B1, the binding result is on record as “binds”.
